The values that follow come from patent publication US20070185028A1, “Compositions and methods for treatment of protein misfolding and protein aggregation diseases” (priority 2004, published 2007).

Assay [1] addresses Human γD crystallin (human) (UniProt P07320). Put plainly: cell-based or functional assay.
For a further assay, the target named is beta amyloid (UniProt P05067). Description: cell-based or functional assay.

Sequence of Human γD crystallin (human) (P07320 2-174 limits assumed): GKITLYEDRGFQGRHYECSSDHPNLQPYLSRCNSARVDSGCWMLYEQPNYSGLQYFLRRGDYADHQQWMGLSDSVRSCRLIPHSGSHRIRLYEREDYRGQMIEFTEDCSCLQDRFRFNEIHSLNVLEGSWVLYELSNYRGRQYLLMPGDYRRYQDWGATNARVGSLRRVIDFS

“human αB crystallin (from UniProt P02511 1-175)” came in with a Δfluorescence (γD crystallin), Thioflavin T, 72 h at 50° C (no chaperone: 888,803,840) in assay [1] of 1.08e+09. In addition, the Δfluorescence (Aβ), Thioflavin T, 72 h at 50° C (no chaperone: 1,324,974,048) with beta amyloid came out at 3.18e+08.
